In patent publication US20030113892A1 one finds enhancement of [3H] BTX binding to rat brain synaptosomes and EC50 data, which are given here for two molecules.

No end group written: not given here.

Experiment [1] addresses rat brain synaptosomes (voltage-gated sodium channel, receptor site 3) (rat). The experiment is described as follows: cell-based or functional assay.
For experiment [2] the target is unchanged.

In general, EC50 refers to the concentration giving half of the maximal effect. High values mean a less potent agent, low ones a more potent agent. Turning to uctoxin (peptide), in experiment [1], the enhancement of [3H] BTX binding to rat brain synaptosomes came to 2 fold. In experiment [2], the EC50 was 60 nM.

B1: birtoxin (peptide)
chain: ADVPGNYPLDKDGNTYKCFLLGGNEECLNVCKLHGVQYGYCYASKCWCEYLEDDKDVS
modifications: also: three disulfide bridges, pairings not given here
Turning to B1, in experiment [1], the enhancement of [3H] BTX binding to rat brain synaptosomes amounted to 4.32 fold. For the same molecule, in experiment [2], the EC50 stood at 5 nM.
